B1: TPR t1 (parent)
chain: GACCAAUCUGCCCUCAGAGCUCGAGAACAUCUUCGGAUGCAGAGGAGGCAGGCUUCGGUGGCGCGAUAGCGCCAACGUCCUCAACCUCCAAUGCAUCCCACCACAUGAUGAUGCCUGAAGAGCCUUGGUUUUUUG

Variants of: B1
Experiment: polymerase ribozyme fitness, log enrichment relative to wild type (log ratio); higher = more active; in vitro selection for triplet polymerase activity
Summary of the method: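 Genotype fitness is the logarithm of its enrichment divided by wild-type enrichment, using inverse-variance-weighted averages of replicates. That logarithm is base 2. Enrichment was measured by Illumina sequencing of input and output libraries from one triplicate in vitro selection round, with frozen incubation at −7 °C, on PCR-built, transcribed mutant libraries of each subunit of a heterodimeric triplet polymerase ribozyme, retaining genotypes with ≥10 input reads and ≥1 read per output.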

Variant | polymerase ribozyme fitness (log ratio)
C12U U21A A29G G63A | -2.72
C12G C15A U78A | -2.34
C12G C20U C123U U125C | -0.31
C12G G39A C89A U106C | -2.19
C13A C15U G44A C49U C73U C89A | -4.76
C12U C20G A43C G48A C62U | -6.08
C12U A41U C56A U87A C114U | -3.21
C12U C64U C98U | -0.396
C12U G48A U131A | -0.967
C12U C22U U59C C85G | -4.46
C12U A66G A74U | -1.17
C12G C40G | -1.2
C13A G71A A74C G128A | -5.69
C13A G52A U59C G113A | -3.69
C12A U81A | -1.96
C12G C28U G36U G60A A83C C97U | -3.31
C12U G48A G51U C56A | -2.84
C13A A41G G69A | -5.37
C13A A18G C49A C94U G117U | -6.43
C13A G57A G127C | -3.7
C12U C22A | -4.93
C13A U96A | -2.64
C13A A29G C70U A95U C124A | -1.57
C13A G117A | -4.07

Variant | polymerase ribozyme fitness (log ratio)
C13A A43C G93C | -5.21
C12U G128A | -1.59
C12U G39U G63U G77C | -3.85
C12U C15G G71C G127C | -4.84
C12U A29U G52C C73U | -1.91
C12U A27G C40U C56U C86U C102U | -3.62
C12U A43C A90U | -0.274
C12U C13U | -0.904
C12U G17C G71A C97G C115G | -4.83
C12U C79U | 0.083
C12A U130A | -2.22
C12U C72U U81G | -3.47
C12G A27U C56U C101G C102A C104G C114U | -5.64
C13A A46G G63C | -2.95
C12U A27C C62A A83U | -6.02
C13G A100C | -3.31
C12G G19C G23C U59C G60U | -6.79
C12U G47U C73A C86G G122A | -0.298
C12G C62U U116A | -2.68
C12U G69C U81C G110U | -3.57
C12G C73G C88G | -1.78
C12G U14G A24G C49A G61U G77U C104U | -6.42
C13A C22U | -4.99
C13A C22A | -5.41

Variant | polymerase ribozyme fitness (log ratio)
C12U G47A C102A | -2.63
C13A U81A C88U G110A A121C | -2.71
C12U G63U | -0.968
C12G C62U A75C A108G | -2.34
C12U G51U C73A U92A G113U U116G | -7.04
C12U U112G | 0.735
C12G A18C C80U U112G | -3.95
C12U C13U C97A C123U C124A | -2.92
C12U A43U C56G | -1.63
C12U C13G C70G | -2.49
C13A G122A | -2.07
C12U C20U A43U G45A C56G G113A | 0.057
C13A C85G C123U | -0.463
C12A U96A A121G | -0.355
C13A A84G | -2.42
C12G C34G G69U A83C | -3.04
C13G C22U G63U C79U G122A | -7.09
C12G C15U C56U G77C A83C C88A U106A U132A | -3.55
C13G A43U C76U C123G | -0.345
C12A U55A G122A U126A | -5.02
C13G A83U | -2.24
C12G U21C A29U C123U U131A | -1.87
C13A C114U | -2.86
C13A G61U U92C C114A | -3.9

Variant | polymerase ribozyme fitness (log ratio)
C13A A103U A108U G117C U129A | -6.73
C13A G60A | -1.95
C12G G45A G107U | -5.21
C13G C20U | -2.34
C13A C73A G120A C123A | -0.951
C12G A26G | -1.93
C12U A18C G71U U131C | -1.9
C12U A119C A121C | -2.21
C13A C72G A83G A121U C123U | -0.305
C12G A16U G45U C89G U129C | -4.69
C12U U14A C64U G110U G113A U130C | -4.16
C13A G69U C72A G113A | -1.88
C12G G113A | -0.4
C12U A74U C80A C97U A121G U133A | -0.836
C12G C13A G42C G69A G117C A118U U134G | -4.53
C12U G36C G117U | -0.382
C12U A18U | -2.21
C12G A43G | -1.17
C13A G63C | -2.37
C13A G63U | -3.09
C12U A108G U130A | -3.19
C12G A50U G117C U125C | -6.32
C12G A29U A46U C124A | -1.77
C12G A46C C101U U132C | -1.45

Variant | polymerase ribozyme fitness (log ratio)
C13A G61C A90C | -5.48
C12G U14G G52C G61A C82A C88A A118U | -2.32
C12G C72U U116A G120U | -0.787
C12A U78A | -1.37
C13A A29G | -3.22
C12U C31U G77U U87C C123U | -3.57
C13G C20U G48A | -3.29
C13A C97U | -2.68
C13A C97A | -5.11
C12U G71A | -0.123
C13A C53A G120U U132C | -0.539
C13A A66U C101A | -4.3
C12U C34A | -2.28
C12G C72A C104U C123U C124A | 1.79
C12G U21A G71U U78A A121U | -0.676
C12U A75G G128A | -1.43
C13A G61A C88A G110A | -2.92
C13A C20U G61U | -2.05
C13G A66U C79U C102A | -4.83
C12U G61C | -1.48
C13A U87A U106A | -2.48
C12U A46U C49U G63C A90C | -4.26
C12G C13U | -0.223
C12U A37U G60C | -1.06

Variant | polymerase ribozyme fitness (log ratio)
C12U C20U U96C | -0.583
C12G C82U C97A | -3.58
C13A A18G C98G G120C | -1.26
C13A G71A | -0.843
C12U C124G | 2.23
C12G C15G G45A G61C | -4.58
C12G A18U G51U A74G C86A C124A | -6.6
C13A G77U U106A C114A | -4.55
C12G A26C G60U | -3.25
C13G A37G G71U C102G A103U U112A G117U G127C U130G | -6.56
C13A C85U A100C | -3.76
C13A G44U C72U U78C G128A | -6.14
C12U C15U U38C A43C C123A | -1.45
C12G U14A | -1.56
C12G U54C G61C | -2.85
C12U G17U C94U G113A | -2.71
C13A U78A | -2.18
C12U C13G C20A A37G A46U G77A G120A | -2.45
C12G U96G G117U | -2.18
C13A G35A C124G | -3.52
C12G G36U U132A | -1.56
C13A G47C | -3.14
C12U U32C U81A U112A | 0.32
C13A G48A U109A G120C | -5.29

Variant | polymerase ribozyme fitness (log ratio)
C12G C114U | -1.65
C12G A103U | -4.83
C12U A100U | -0.242
C13A G45U G69U | -1.92
C12U C53G C97A | -5.8
C12U G39A C72A A74G C79U C80G | -5.3
C12U A37U C85U G93C G120A | 0.532
C12U A46C C53G G71C A84C A95C | -2.46
C13A C53G U54A G117C | -4.98
C12U U96G G128C | -2.88
C13G A37U U38C | -2.77
C13A U112G | -1.5
C12G A41C C82U | -0.401
C12U C20U C40U C49G | -1.67
C12G C123U | 1.34
C12U U33G A105U U112G U125A | -7
C12U C13U A43G G61A | -2.1
C13A U32C U109G G120C | -5.75
C12G C22G | -3.07
C12U C22U U59C C89G U109A U116A C123G | -7.4
C12G C20G C79U C82U A91U G107C G117A | -4
C13A A95C G120A | -0.521
C13A | -1.61

— the RNAGym collection of RNA variant scans (doi:10.1073/pnas.2313332121)
